According to US9061070B2, “Treating stroke and other diseases without inhibiting N-type calcium channels” (NoNO, Inc., priority 2007, dated 2015):

Target: T1, chemokine CXCR2 (IL-8Rb) (Homo sapiens, UniProt P25025)
T1 sequence (P25025 1-360): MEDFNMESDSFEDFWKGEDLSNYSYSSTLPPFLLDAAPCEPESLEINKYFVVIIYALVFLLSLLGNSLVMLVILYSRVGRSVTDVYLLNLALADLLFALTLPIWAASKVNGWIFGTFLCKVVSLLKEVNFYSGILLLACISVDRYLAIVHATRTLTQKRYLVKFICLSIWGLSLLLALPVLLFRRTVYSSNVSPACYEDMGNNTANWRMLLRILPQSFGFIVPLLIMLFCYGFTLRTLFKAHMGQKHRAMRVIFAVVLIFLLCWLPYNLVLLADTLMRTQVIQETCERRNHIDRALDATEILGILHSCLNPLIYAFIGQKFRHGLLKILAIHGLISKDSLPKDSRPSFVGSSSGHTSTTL
Assay: Competitive radioligand binding screen, IL-8/IL-8RB
Details: 10 μM peptide

YGRKKRRQRRRKLSSIESDV [Tat-NR2B9c, reference compound]
inhibition of IL-8/IL-8RB: 80%
